As a reminder, the Kd is the concentration at which binding is half-saturated. High values mean lower affinity, low ones higher affinity. For orientation: koff means the first-order rate constant of dissociation.

Where “and” joins values, the source holds several entries; their conditions need not be identical. Identical values can stand only once. Like-named read-outs stand apart in the source and are kept apart here.

Data on three molecules can be found in US20230174599A1 (University of California, published 2023).

Experiment [1] deals with T1, SARS-CoV-2 Spike RBD (SARS-CoV-2, UniProt P0DTC2 319-541).
T1 construct: domain: RBD; also called single RBDs; Spike RBD proteins

In experiment [2] the target is T1, SARS-CoV-2 Spike RBD. This is another data set of the same source.
Experiment [3] concerns the target T1, SARS-CoV-2 Spike RBD.
Experiment [4] has as its target T1, SARS-CoV-2 Spike RBD. This is another data set of the same source.

B1: RiAFP-HTH.1 (designed binder)
chain: ASRAEARGEAMAEGHSRGSATSHANATGHADARSMSEGNAEAYTEAKGDAMATSEASGEARAQTNADGSAHSSSRTHGRADSTASAKTNYNRECGEEQAKTFLDKFNHEAEDLFYQSSLASWNYNTNITEENVQNRNNAGDKRSAFLKEQSTLAQMYGCGSGSAMAEGTSDGDAKSYASADGNASAKSMSTGHADATTNAHGTAMADSNAIGEARAETRAEGRAESSSDTDGS
notes: also called mBSP-HTH.1; RiAFP-HTH.1 construct
In the experiment with SARS-CoV-2 Spike RBD [1], B1 yielded a Kd of 0.7 to 1.6 nM.

B2: RiAFP-HTH.2 (designed binder)
chain: ASRAEARGEAMAEGHSRGSATSHANATGHADARSMSEGNAEAYTEAKGDAMATSEASGEARAQTNADGSAHSSSRTHGRADSTASAKGGKALNDKEAKNKAILNLEEIEEQAKTFLDKFNHEAEDLFYQSSLASWNYNTNITEENVQNMNNAGDKWSAFLKEQSTLAQMYQNEIKRKSEKQEDLKKEMLELEKLGGAMAEGTSDGDAKSYASADGNASAKSMSTGHADATTNAHGTAMADSNAIGEARAETRAEGRAESSSDTDGS
notes: also called mBSP-HTH.2; RiAFP-.2
As for B2, the equilibrium dissociation constant (Kd) in the experiment with SARS-CoV-2 Spike RBD [2] was 2.1 nM; in the experiment with SARS-CoV-2 Spike RBD [1] it was 2.1 to 28 nM; with SARS-CoV-2 Spike RBD [3], ≥ 41 nM and ≤ 84 nM and 28 nM.

B3: polymeric RiAFP-HTH.2 fixed to nitrocellulose (designed binder)
chain: B2 chain
On to B3, for which, in the experiment with SARS-CoV-2 Spike RBD [4], the Kd was 0.006 to 0.009 nM and ≤ 0.01 nM; the off-rate constant (koff) was 6e-07 to 9e-07 s⁻¹.
